Data: patent publication US20190298769A1

Biological target: 4-1BB receptor on Jurkat cells that over express 4-1BB/NFκB/Luc (UniProt Q07011)
Assay: cell-based or functional assay

UniProt Q07011, sequence (Q07011 24-255 limits assumed): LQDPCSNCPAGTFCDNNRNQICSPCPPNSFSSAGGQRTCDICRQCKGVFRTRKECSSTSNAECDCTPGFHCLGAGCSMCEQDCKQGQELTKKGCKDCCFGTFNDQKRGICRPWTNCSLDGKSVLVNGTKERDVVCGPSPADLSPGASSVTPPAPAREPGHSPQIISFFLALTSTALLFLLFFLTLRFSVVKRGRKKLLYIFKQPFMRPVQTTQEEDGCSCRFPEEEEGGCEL

- NFκB activation (luciferase activity of Jurkat cells that over express 4-1BB/NFκB/Luc): 80 to 100 fold
- NFκB activation relative to the agonistic 4-1BB monoclonal antibody: 15 fold
Substance: 4-1BBL construct (human extracellular 4-1BBL - 4-1BBL linker - GPA) on the surface of engineered erythroid cells (ligand)
